Experimental data as given in IntAct's records for PubMed 14871493.

target: narb_syne7 narB (UniProt P39458)
Sequence (P39458 whole entry): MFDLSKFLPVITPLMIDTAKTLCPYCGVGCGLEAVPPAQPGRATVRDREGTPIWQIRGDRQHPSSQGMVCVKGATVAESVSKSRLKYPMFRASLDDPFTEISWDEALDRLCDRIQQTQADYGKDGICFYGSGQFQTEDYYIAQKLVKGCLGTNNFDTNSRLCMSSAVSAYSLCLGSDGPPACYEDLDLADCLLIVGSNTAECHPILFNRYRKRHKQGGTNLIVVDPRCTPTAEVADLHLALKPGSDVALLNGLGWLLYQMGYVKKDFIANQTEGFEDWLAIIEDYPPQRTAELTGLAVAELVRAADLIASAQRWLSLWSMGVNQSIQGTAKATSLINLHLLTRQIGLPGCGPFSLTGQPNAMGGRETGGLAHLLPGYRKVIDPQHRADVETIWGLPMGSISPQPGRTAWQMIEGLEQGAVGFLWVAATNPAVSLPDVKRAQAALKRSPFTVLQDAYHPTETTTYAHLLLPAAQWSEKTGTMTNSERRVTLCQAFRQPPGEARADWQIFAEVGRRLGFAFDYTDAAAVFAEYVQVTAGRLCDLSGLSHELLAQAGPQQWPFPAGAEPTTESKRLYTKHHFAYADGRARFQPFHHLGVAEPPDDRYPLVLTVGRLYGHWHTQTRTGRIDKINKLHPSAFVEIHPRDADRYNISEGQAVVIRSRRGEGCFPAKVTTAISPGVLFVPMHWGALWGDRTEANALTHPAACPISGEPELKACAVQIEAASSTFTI

Sequence of Ferredoxin-1 (Anabaena sp. (strain PCC 7119)), P0A3C8 E95K;E96K (P0A3C8 whole entry E95K/E96K): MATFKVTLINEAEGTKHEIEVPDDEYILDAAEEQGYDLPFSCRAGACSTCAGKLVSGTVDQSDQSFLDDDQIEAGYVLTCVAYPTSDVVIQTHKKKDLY
Sequence of Ferredoxin-1 (Anabaena sp. (strain PCC 7119)), P0A3C8 E96K (P0A3C8 whole entry E96K): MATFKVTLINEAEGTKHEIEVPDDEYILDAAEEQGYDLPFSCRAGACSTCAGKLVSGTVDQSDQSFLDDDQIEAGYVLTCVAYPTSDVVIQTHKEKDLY
Sequence of Ferredoxin-1 (Anabaena sp. (strain PCC 7119)), P0A3C8 E95K (P0A3C8 whole entry E95K): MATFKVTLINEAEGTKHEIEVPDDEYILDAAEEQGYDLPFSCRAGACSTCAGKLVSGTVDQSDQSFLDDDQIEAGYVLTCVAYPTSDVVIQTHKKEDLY

effect of a mutation on the interaction	Substance
decreasing interaction	Ferredoxin-1 (Anabaena sp. (strain PCC 7119)), P0A3C8 E95K
decreasing interaction	Ferredoxin-1 (Anabaena sp. (strain PCC 7119)), P0A3C8 E95K;E96K
decreasing interaction	Ferredoxin-1 (Anabaena sp. (strain PCC 7119)), P0A3C8 E96K
